{"source": "patent US8445662B2", "about": "“Mycobacterium tuberculosis fusion protein and uses thereof” (The 309th Hospital, The People's Liberation Army, priority 2006, dated 2013)", "conditions": "guinea pig, in vivo"}
{"substance": "Bovine serum albumin (BSA): positive control group in the guinea pig anaphylaxis test", "values": [{"measurement": "Averaged weight (g), during excitation", "result": "447.1 ± 41.4", "unit": "g"}, {"measurement": "Averaged weight (g), sensitized upon the last injection", "result": "380.6 ± 23.6", "unit": "g"}, {"measurement": "Reaction level + (number of guinea pigs)", "result": 0}, {"measurement": "Reaction level ++ (number of guinea pigs)", "result": 0}, {"measurement": "Reaction level +++ (number of guinea pigs)", "result": 3}, {"measurement": "Reaction level ++++ (number of guinea pigs)", "result": 0}, {"measurement": "Reaction level − (number of guinea pigs)", "result": 3}]}
